Data taken from paper PMC10130389, “Growth hormone secretagogues modulate inflammation and fibrosis in mdx mouse model of Duchenne muscular dystrophy” (Frontiers in Immunology, 2023).
No end group written: not given here.

Legend:
H2K-2B4 cells = test: CCK-8 cell viability, WT H2K-2B4 cells; type: cell-based, murine; details: at 1 mM, proliferation and differentiation conditions, CCK-8, triplicate
Procedure: (§1) Wild-type (WT) H2K-2B4 and dystrophic H2K-SF1 cell lines were cultured and used for all the experiments ([48]). Cells were seeded in 96-well cultures (approximately 4–4.5 × 10^3 cells per well) and sixteen hours after seeding were treated with EP80317, JMV2894 (both in the concentration range 100μM to 1mM) or ghrelin (as control in the concentration range 10nM to 100 μM). Cell viability was then evaluated at different time points following the exposure (16-96 h) by using the Cell Counting Kit-8 (CCK-8,96992 Sigma-Aldrich), according to the instruction. The optical density of each well was determined using a microplate reader set to 450 nm (Victor 3V, Perkin Elmer, Waltham, MA, USA). Cell viability was expressed in percentage vs. control properly corrected for blank values.

H2K-SF1 cells = test: CCK-8 cell viability, dystrophic H2K-SF1 cells; type: cell-based, murine; details: at 1 mM, proliferation and differentiation conditions, CCK-8, triplicate
Procedure: as §1

## ghrelin: 28 amino acid hormone, used as control in the cell viability assay (GSSFLSPEHQRVQQRKESKKPPAKLQPR; ends and bridges not checked; UniProt Q9UBU3 24-51, looked up)
H2K-2B4 cells
  toxic effect on 2B4 cells: no toxic effect
H2K-SF1 cells
  toxic effect on SF1 cells: no toxic effect
